Experimental findings from US8241627B2, “Modified polypeptides stabilized in a desired conformation and methods for producing same” (The Center for Blood Research, Inc., priority 2000, dated 2012) are described below.

Common to all, as to format: cell-based
One experiment has as its target T1, LFA-1 mutant K287C/K294C (Homo sapiens, UniProt P20701, K312C/K319C).
T1 construct: expressed in transfected cells
Put plainly: Inhibition of binding of mutant K287C/K294C LFA-1 transfectants to immobilized ICAM-1. Conditions: lovastatin 0-50 μM. How it is done:
(§1) Briefly, ICAM-1 was purified from human tonsil, and coated to 96-well plates as described previously (Lu, C and Springer T A, (1997) J Immunol 159:268-278). Cells were labeled with a florescence dye 2′,7′-bis-(carboxyethyl)-5(and-6)-carboxyfluorescein, acetoxymethyl ester (BCECF-AM), and resuspended to 1×10^6/ml in L15/FBS. 50 μl cell suspension was mixed in ICAM-1 coated wells with an equal volume of L15/FBS in the absence or presence of monoclonal antibody (CBRLFA-1/2, 10 μg/ml). Monoclonal antibodies were used at final concentration of 1:20 hybridoma supernatant, 1:200 ascites, or μg/ml purified IgG. For testing the effect of divalent cations, BCECF-AM-labeled cells were washed 2× with TS buffer, pH7.5 (20 mM Tris, pH 7.5, 150 mMNaCl) containing 5 mM EDTA, followed by 2 washes with TS buffer, pH7.5. […] The fluorescence content of total input cells and the bound cells in each well was quantitated on a Fluorescent Concentration Analyzer (IDEXX, Westbrook, Me.). The bound cells were expressed as a percentage of total input cells per sample well. […]
(§2) The high affinity open I-domains of the invention can be used to discriminate between direct/competitive and indirect/non-competitive modes of inhibition of LFA-1. […] Accordingly, the ability of lovastatin to inhibit ligand binding of the high-affinity I-domain (K287C/K294C) was assessed. […]

The target of a further experiment is T2, wild-type LFA-1 (Homo sapiens, UniProt P20701).
T2 construct: expressed in transfected cells
Put plainly: Inhibition of binding of wild-type LFA-1 transfectants to immobilized ICAM-1. Conditions: lovastatin 0-50 μM; cells stimulated with Mn2+ or antibody CBRLFA1/2. The protocol:
as §1, §2

A further experiment has as its target T3, ICAM-1 (Homo sapiens, UniProt P05362).
T3 construct: ICAM-1 was purified from human tonsil; from tissue; host or cells: human tonsil
Put plainly: Binding of LFA-1 or isolated I-domain transfectants to immobilized ICAM-1. Conditions: for binding of 293T transient transfectants to immobilized ICAM-1: no activating antibody. How it is done: Clones of the transfectants that expressed similar levels of cell surface LFA-1, as determined by flow cytometry using monoclonal antibody TS2/4 (FIG. 3B), were tested for their ability to bind to immobilized ICAM-1, as previously described (Lu, C and Springer, T A (1997) J Immunol 159:268-278).
Briefly, ICAM-1 was purified from human tonsil, and coated to 96-well plates as described previously (Lu, C and Springer T A, (1997) J Immunol 159:268-278). Cells were labeled with a florescence dye 2′,7′-bis-(carboxyethyl)-5(and-6)-carboxyfluorescein, acetoxymethyl ester (BCECF-AM), and resuspended to 1×10^6/ml in L15/FBS. 50 μl cell suspension was mixed in ICAM-1 coated wells with an equal volume of L15/FBS in the absence or presence of monoclonal antibody (CBRLFA-1/2, 10 μg/ml). Monoclonal antibodies were used at final concentration of 1:20 hybridoma supernatant, 1:200 ascites, or μg/ml purified IgG. For testing the effect of divalent cations, BCECF-AM-labeled cells were washed 2× with TS buffer, pH7.5 (20 mM Tris, pH 7.5, 150 mMNaCl) containing 5 mM EDTA, followed by 2 washes with TS buffer, pH7.5. Cells were then resuspended to 5×10^5/ml in the TS buffer, pH7.5 supplemented with 1 mM MgCl2/CaCl2, MgCl2, MnCl2 mM EDTA, and 100 μl cell suspension was added to ICAM-1 coated wells. After incubation at 37° C. for 30 minutes, unbound cells were washed off on a Microplate Autowasher (Bio-Tek Instruments, Winooski, Vt.). The fluorescence content of total input cells and the bound cells in each well was quantitated on a Fluorescent Concentration Analyzer (IDEXX, Westbrook, Me.). The bound cells were expressed as a percentage of total input cells per sample well.
For generating stable K562 transfectants that express the I-domain on the surface, 20 μg of SspI-linearized pcDNA3.1/Hygro(+) containing the sequences encoding the I domain and the PDGFR transmembrane domain was used to transfect K562 cells by electroporation as described above. Transfectants were selected for resistance to 100 μg/ml hygromycin B, and were further subcloned by cell sorting and limiting dilution; clones that expressed similar levels of surface wild-type and mutant I domain-PDGFR were selected for functional studies. Stable cell lines were maintained in RPMI medium 1640 supplemented with 10% FBS and 100 μg/ml hygromycin B. Cell surface expression of the isolated I-domains was determined by flow cytometry using antibody TS1/22 to the I-domain (FIG. 7). Two clones from each transfectant were selected and tested for binding to immobilized ICAM-1, and similar results were obtained with each of the two clones (FIG. 8A).
If the constitutive ligand binding activity of mutant K287C/K294C is due to the formation of a disulfide bond between the introduced C287 and C294, disruption of the disulfide bond with a reducing agent would abolish ligand binding ability of the mutant. Accordingly, the transfectants were treated with the reducing agent DTT (10 mM) in L15/FBS containing Mg^2+ and Ca^2+, and the ability of transfectants to bind to ICAM-1 was assessed.
Furthermore, the effect of divalent cations on ligand binding of the isolated I-domains expressed on the surface of K562 transfectants was tested. The binding reactions were performed in HEPES/NaCl/glucose (20 mM HEPES, pH 7.5, 140 mM NaCl, 2 mg/ml glucose) supplemented with 1 mM […], 1 mM Mg^2+, or 1 mM EDTA.

The target in the next experiment is T4, iC3b (Homo sapiens, UniProt P01024).
T4 construct: mutant to iC3b coated on plastic
Put plainly: Adhesion of αMβ2 (Mac-1) or αM I-domain transfectants to immobilized iC3b. From the text:
In order to assess the effect of the introduction of pairs of potentially disulfide bond-forming cysteines into the I-domain of αMβ2 on CBRM 1/5 activation-dependent epitope expression and ligand binding, plasmids encoding the wild-type or mutant αM subunits and the β2 subunit were co-transfected into 293T and K562 cells. α.β heterodimer formation was confirmed using monoclonal antibody CBRM1/32 which recognizes an epitope in the putative β-propeller domain of the αM subunit only after association with the β2 subunit, and antibody CBRM1/5 was used to detect integrin activation.
Alternatively, isolated Mac-1 mutant I-domains were expressed on the cell surface in conjunction with an artificial signal sequence and transmembrane domain of the PDGF receptor. Adhesion was assayed in L15/FBS/MnCl2 at 37° C.
In a further study, the open I-domain mutants Q 163C/Q309C and D294C/Q311C were stably expressed in K562 cells, and clones expressing the same levels of receptors were selected. Adhesion assays to immobilized iC3b were performed with L15/FBS at 37° C.
Binding of αMβ2 transfectants containing mutant I-domains to immobilized iC3b on plastic was tested in the presence and absence of DTT.

T3 sequence (P05362 28-532): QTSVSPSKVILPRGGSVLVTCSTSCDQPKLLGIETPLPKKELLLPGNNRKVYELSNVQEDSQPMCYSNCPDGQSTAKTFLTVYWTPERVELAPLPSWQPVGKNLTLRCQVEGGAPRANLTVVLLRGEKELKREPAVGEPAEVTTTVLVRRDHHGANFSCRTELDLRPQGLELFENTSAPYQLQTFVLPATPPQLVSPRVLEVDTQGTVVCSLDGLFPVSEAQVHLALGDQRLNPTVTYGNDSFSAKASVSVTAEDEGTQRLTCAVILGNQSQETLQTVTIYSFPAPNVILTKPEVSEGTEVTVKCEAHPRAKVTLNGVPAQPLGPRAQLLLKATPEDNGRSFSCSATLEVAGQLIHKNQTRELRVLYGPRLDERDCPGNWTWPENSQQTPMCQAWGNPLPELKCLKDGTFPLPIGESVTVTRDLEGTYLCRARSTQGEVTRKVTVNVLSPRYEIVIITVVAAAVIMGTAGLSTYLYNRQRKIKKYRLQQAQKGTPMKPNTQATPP
T4 sequence (P01024 23-667 limits assumed): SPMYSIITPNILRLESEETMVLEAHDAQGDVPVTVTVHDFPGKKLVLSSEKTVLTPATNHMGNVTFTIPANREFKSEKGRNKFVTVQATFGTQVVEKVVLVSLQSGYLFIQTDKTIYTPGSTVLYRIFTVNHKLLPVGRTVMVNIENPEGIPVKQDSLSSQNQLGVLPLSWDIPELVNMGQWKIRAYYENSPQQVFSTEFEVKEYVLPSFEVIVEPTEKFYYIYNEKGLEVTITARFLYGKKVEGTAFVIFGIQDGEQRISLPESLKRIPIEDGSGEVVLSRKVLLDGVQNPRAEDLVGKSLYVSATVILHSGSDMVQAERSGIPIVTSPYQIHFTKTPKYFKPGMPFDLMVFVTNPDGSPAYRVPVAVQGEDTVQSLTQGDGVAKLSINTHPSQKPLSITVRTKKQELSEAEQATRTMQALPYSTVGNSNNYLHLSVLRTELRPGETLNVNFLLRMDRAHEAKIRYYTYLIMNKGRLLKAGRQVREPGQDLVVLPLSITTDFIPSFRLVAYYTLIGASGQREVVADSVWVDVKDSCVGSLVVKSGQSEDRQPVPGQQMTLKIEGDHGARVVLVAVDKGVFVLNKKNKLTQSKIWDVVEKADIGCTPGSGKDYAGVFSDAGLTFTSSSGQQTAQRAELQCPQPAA
T4 sequence (P01024 749-1303 limits assumed): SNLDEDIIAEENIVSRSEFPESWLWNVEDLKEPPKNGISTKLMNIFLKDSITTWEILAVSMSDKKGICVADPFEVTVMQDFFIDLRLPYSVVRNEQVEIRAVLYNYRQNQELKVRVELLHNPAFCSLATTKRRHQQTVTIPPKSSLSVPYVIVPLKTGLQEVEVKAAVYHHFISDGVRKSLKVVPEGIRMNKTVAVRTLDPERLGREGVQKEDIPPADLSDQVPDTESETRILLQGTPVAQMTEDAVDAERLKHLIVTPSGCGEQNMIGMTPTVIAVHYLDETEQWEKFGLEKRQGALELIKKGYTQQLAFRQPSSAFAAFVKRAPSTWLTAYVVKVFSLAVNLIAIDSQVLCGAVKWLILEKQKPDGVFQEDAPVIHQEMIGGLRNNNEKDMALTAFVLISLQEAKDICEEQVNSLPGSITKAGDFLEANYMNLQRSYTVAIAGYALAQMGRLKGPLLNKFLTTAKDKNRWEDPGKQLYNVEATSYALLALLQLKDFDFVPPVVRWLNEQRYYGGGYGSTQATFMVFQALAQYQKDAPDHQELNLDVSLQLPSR
T4 sequence (P01024 1321-1663 limits assumed): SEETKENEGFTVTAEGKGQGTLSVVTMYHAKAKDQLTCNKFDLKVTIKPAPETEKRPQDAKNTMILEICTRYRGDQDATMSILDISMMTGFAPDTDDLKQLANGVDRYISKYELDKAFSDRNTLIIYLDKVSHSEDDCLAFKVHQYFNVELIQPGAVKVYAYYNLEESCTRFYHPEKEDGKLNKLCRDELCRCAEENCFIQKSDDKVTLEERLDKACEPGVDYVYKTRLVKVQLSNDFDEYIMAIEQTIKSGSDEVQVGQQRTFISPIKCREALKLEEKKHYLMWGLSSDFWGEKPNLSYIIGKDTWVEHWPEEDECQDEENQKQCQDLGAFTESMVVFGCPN
T2 sequence (P20701 26-1170): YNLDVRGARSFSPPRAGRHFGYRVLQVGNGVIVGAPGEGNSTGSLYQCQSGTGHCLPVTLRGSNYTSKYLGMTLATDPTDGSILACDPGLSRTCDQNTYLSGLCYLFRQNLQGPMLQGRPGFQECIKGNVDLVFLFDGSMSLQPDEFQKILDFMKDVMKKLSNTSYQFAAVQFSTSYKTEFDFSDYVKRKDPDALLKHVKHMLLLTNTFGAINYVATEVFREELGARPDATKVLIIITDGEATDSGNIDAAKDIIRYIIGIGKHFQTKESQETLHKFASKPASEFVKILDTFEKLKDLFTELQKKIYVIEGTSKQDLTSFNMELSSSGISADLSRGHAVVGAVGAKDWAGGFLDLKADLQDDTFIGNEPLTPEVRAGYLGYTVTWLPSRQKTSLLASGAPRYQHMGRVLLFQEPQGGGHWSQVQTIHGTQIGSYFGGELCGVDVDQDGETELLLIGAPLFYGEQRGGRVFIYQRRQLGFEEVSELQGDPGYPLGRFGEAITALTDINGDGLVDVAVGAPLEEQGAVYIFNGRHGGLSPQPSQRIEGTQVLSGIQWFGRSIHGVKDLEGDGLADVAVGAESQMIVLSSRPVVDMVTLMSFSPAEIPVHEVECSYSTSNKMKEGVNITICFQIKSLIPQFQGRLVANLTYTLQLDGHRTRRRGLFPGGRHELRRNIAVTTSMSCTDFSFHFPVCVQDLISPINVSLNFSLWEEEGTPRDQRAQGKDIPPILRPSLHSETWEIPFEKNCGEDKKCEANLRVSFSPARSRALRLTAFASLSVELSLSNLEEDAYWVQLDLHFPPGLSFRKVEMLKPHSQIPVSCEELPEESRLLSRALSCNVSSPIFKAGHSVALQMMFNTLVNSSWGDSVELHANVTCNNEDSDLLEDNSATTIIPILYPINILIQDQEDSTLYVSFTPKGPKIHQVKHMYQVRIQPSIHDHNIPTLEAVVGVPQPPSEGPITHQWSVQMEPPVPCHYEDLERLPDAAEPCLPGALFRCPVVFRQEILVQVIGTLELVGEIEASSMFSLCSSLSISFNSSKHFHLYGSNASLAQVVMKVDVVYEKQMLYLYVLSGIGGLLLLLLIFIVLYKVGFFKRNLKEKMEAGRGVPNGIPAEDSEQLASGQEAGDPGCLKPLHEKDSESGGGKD
T2 sequence (P05107 23-769 partner): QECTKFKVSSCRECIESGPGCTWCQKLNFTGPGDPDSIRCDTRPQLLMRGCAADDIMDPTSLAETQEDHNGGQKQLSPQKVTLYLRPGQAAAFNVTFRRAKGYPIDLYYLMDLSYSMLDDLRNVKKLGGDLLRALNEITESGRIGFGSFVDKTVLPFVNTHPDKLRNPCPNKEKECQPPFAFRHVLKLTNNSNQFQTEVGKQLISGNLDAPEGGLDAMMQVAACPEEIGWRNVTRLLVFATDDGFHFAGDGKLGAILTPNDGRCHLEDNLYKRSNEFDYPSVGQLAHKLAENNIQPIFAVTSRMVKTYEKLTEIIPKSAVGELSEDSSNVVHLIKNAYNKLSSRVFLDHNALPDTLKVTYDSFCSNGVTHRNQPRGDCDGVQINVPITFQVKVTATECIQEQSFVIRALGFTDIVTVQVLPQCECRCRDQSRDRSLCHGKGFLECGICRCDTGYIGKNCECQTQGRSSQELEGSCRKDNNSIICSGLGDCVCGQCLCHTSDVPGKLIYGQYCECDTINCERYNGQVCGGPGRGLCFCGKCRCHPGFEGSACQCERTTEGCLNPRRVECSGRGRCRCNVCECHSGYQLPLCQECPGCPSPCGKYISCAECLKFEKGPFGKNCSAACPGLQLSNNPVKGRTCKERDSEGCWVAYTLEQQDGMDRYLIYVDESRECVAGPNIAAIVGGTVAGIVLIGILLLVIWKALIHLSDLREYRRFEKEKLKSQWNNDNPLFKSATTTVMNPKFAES
T1 sequence (P20701 26-1170 K312C/K319C): as the sequence (P20701 26-1170) above, with K287C, K294C counted along it
T1 sequence (P05107 23-769 partner): as the sequence (P05107 23-769 partner) above

Turning to `CC[C@H](C)C(=O)O[C@H]1C[C@@H](C)C=C2C=C[C@H](C)[C@H](CC[C@@H]3C[C@@H](O)CC(=O)O3)[C@H]21` [lovastatin], the “interference with ligand binding by the high affinity open K287C/K294C mutant” value at LFA-1 mutant K287C/K294C is on record as “does not interfere”. Further, on wild-type LFA-1, the “inhibition of ICAM-1 binding by cells expressing wild-type LFA-1” value is “inhibits”.

Turning to “K294C: single cysteine substitution mutant of LFA-1 αL”, the “binding of 293T transient transfectants to immobilized ICAM-1” value with ICAM-1 (293T) is on record as “comparable to that of the wild-type”.

As to “L289C: single cysteine substitution mutant of LFA-1 αL”, the “binding of 293T transient transfectants to immobilized ICAM-1 with activating mAb CBRLFA-1/2” value with ICAM-1 (293T, CBRLFA-1/2 10 μg/ml) is recorded as “increased”. Moreover, in the experiment with ICAM-1 (293T), the “binding of 293T transient transfectants to immobilized ICAM-1” value is on record as “reduced binding”.

For “Wild type: wild-type αMβ2 (Mac-1) transfectant”, the “effect of DTT on binding of intact αMβ2” value with iC3b (DTT) was “increased binding”. Further, the “adhesion of αMβ2 transfectant to iC3b, +DTT +activation” value with iC3b (DTT treatment, activated by mAb CBR LFA-1/2) is reported as “++++ (++++: 75-100% of binding by activated wild type transfectant)”. Moreover, the “adhesion of αMβ2 transfectant to iC3b, +DTT −activation” value with iC3b (DTT treatment, no activating mAb) is “++ (++25-50%)”. The “ligand binding (iC3b) of intact αMβ2 heterodimer in K562 stable transfectants” value in the experiment with iC3b (K562, L15/FBS at 37° C.) was “little basal activity”. Moreover, in the experiment with iC3b (no DTT, activated by mAb CBR LFA-1/2), the “adhesion of αMβ2 transfectant to iC3b, −DTT +activation” value is on record as “++++ (++++: 75-100% of binding by activated wild type transfectant)”. Besides, the “adhesion of αMβ2 transfectant to iC3b, −DTT −activation” value with iC3b (no DTT, no activating mAb) was “± (+−.: 0-5%)”.

Take “wild-type LFA-1: wild-type human αL/β2 (LFA-1) expressed on 293T or K562 transfectants [reference compound]”: in the experiment with ICAM-1 (293T), the “binding of 293T transient transfectants to immobilized ICAM-1” value is recorded as “constitutively strong binding”. In the experiment with ICAM-1 (K562, CBRLFA-1/2 10 μg/ml), the “binding of K562 stable transfectants to immobilized ICAM-1 with activating mAb CBRLFA-1/2” value was “greatly increased”. The “effect of Mn2+ and Mg2+ on binding of K562 transfectants to ICAM-1” value with ICAM-1 (K562, intact LFA-1, Mn2+ / Mg2+) is “greatly enhanced”. For the same compound, the “binding of K562 stable transfectants to immobilized ICAM-1” value in the experiment with ICAM-1 (K562, no activating antibody) is recorded as “low basal binding”. Besides, the “effect of DTT treatment on binding to ICAM-1” value with ICAM-1 (K562 transfectants, DTT 10 mM in L15/FBS) was “increased binding”.
